Assay results as given in patent publication US20190225669A1 (ACCELERON PHARMA, published 2019).
Where two headings read alike, the source gives them in different places.

T1: ActRIIB-Fc homodimer (UniProt Q13705 19-137)
T1 construct: extracellular domain; also called ActRIIB homodimer
T1 sequence (looked up): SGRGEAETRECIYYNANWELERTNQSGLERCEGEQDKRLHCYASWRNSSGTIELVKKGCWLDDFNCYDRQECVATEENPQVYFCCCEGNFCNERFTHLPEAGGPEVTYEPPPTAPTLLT

T2: BMPRII-Fc homodimer (UniProt Q13873 27-150)
T2 construct: extracellular domain
T2 sequence (looked up): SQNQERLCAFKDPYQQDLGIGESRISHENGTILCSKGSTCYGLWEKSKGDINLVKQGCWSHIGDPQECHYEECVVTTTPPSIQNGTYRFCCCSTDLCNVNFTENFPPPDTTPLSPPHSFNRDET


Columns and labels:
Assay in all cases: Biacore SPR
ActRIIB-Fc homodimer [1] = biological target: T1, ActRIIB-Fc homodimer
Procedure: (§1) Ligands were injected and allowed to flow over the captured receptor protein.

ActRIIB-Fc homodimer [2] = biological target: T1, ActRIIB-Fc homodimer; remark: listed apart in the source
Procedure: as §1

ALK3-Fc homodimer = biological target: T3, ALK3-Fc homodimer (UniProt P36894 24-152)
T3 construct: extracellular domain
Procedure: as §1

ActRIIB-Fc homodimer [3] = biological target: T1, ActRIIB-Fc homodimer; remark: listed apart in the source
Procedure: as §1

ActRIIB-Fc homodimer [4] = biological target: T1, ActRIIB-Fc homodimer; remark: listed apart in the source
Procedure: as §1

ActRIIB-Fc homodimer [5] = biological target: T1, ActRIIB-Fc homodimer; remark: listed apart in the source
Procedure: as §1

ActRIIA-Fc homodimer = biological target: T4, ActRIIA-Fc homodimer (UniProt P27037 20-135)
T4 construct: extracellular domain
Procedure: as §1

BMPRII-Fc homodimer [6] = biological target: T2, BMPRII-Fc homodimer
Procedure: A Biacore™-based binding assay was used to compare ligand binding selectivity of the BMPRII-Fc:ALK2-Fc heterodimeric complex described above with that of BMPRII-Fc and ALK2-Fc homodimeric complexes. […] Ligands were injected and allowed to flow over the captured receptor protein.

BMPRII-Fc homodimer [7] = biological target: T2, BMPRII-Fc homodimer; remark: listed apart in the source
Procedure: as §1

BMPRII-Fc homodimer [8] = biological target: T2, BMPRII-Fc homodimer; remark: listed apart in the source
Procedure: as §1

BMPRII-Fc homodimer [9] = biological target: T2, BMPRII-Fc homodimer; remark: listed apart in the source
Procedure: as §1

T3 sequence (P36894 24-152): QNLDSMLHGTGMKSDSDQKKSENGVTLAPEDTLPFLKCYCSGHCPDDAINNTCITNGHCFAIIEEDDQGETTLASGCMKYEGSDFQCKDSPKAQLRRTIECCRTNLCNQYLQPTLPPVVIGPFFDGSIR
T4 sequence (P27037 20-135): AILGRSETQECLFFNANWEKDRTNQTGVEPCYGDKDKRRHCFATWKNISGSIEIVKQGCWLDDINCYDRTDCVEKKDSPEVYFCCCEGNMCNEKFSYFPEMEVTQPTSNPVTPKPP

Kd (ActRIIB-Fc homodimer [1]) | koff (ActRIIB-Fc homodimer [1]) | kon (ActRIIB-Fc homodimer [1]) | Kd (ActRIIB-Fc homodimer [2]) | koff (ActRIIB-Fc homodimer [2]) | kon (ActRIIB-Fc homodimer [2]) | binding result (ALK3-Fc homodimer) | Kd (ActRIIB-Fc homodimer [3]) | koff (ActRIIB-Fc homodimer [3]) | kon (ActRIIB-Fc homodimer [3]) | Kd (ActRIIB-Fc homodimer [4]) | koff (ActRIIB-Fc homodimer [4]) | kon (ActRIIB-Fc homodimer [4]) | Kd (ActRIIB-Fc homodimer [5]) | koff (ActRIIB-Fc homodimer [5]) | kon (ActRIIB-Fc homodimer [5]) | Kd (ActRIIA-Fc homodimer) | koff (ActRIIA-Fc homodimer) | kon (ActRIIA-Fc homodimer) | Kd (BMPRII-Fc homodimer [6]) | Binder | further results
0.02 nM | 0.0001 s⁻¹ | 5.1e+06 M⁻¹ s⁻¹ | 0.02 nM | 0.0001 s⁻¹ | 5.1e+06 M⁻¹ s⁻¹ | no binding | 0.008 nM | 0.00016 s⁻¹ | 1.5e+07 M⁻¹ s⁻¹ | 0.028 nM | 0.00011 s⁻¹ | 3.8e+06 M⁻¹ s⁻¹ | 0.02 nM | 0.0001 s⁻¹ | 5.1e+06 M⁻¹ s⁻¹ | 0.01 nM | 0.00011 s⁻¹ | 1.1e+07 M⁻¹ s⁻¹ | 2.6 nM | activin B (ligand, UniProt P09529 293-407, looked up) GLECDGRTNLCCRQQFFIDFRLIGWNDWIIAPTGYYGNYCEGSCPAYLAGVPGSASSFHTAVVNQYRMRGLNPGTVNSCCIPTKLSTMSMLYFDDEYNIVKRDVPNMIVEECGCA | koff (BMPRII-Fc homodimer [6]): 0.0049 s⁻¹; kon (BMPRII-Fc homodimer [6]): 1.9e+06 M⁻¹ s⁻¹; Kd (BMPRII-Fc homodimer [7]): 3.8 nM; koff (BMPRII-Fc homodimer [7]): 0.075 s⁻¹; kon (BMPRII-Fc homodimer [7]): 2e+07 M⁻¹ s⁻¹; Kd (BMPRII-Fc homodimer [8]): 3.8 nM; koff (BMPRII-Fc homodimer [8]): 0.075 s⁻¹; kon (BMPRII-Fc homodimer [8]): 2e+07 M⁻¹ s⁻¹
1.5 nM | 0.0022 s⁻¹ | 1.4e+06 M⁻¹ s⁻¹ | 1.4 nM | 0.0023 s⁻¹ | 1.6e+06 M⁻¹ s⁻¹ | no binding | 1.5 nM | 0.0022 s⁻¹ | 1.4e+06 M⁻¹ s⁻¹ | 1.7 nM | 0.002 s⁻¹ | 1.2e+06 M⁻¹ s⁻¹ | 3.9 nM | 0.0018 s⁻¹ | 470000 M⁻¹ s⁻¹ | 2.4 nM | 0.0036 s⁻¹ | 1.5e+06 M⁻¹ s⁻¹ |  | GDF3 (ligand, UniProt Q9NR23 251-364, looked up) AAIPVPKLSCKNLCHRHQLFINFRDLGWHKWIIAPKGFMANYCHGECPFSLTISLNSSNYAFMQALMHAVDPEIPQAVCIPTKLSPISMLYQDNNDNVILRHYEDMVVDECGCG | 
0.002 nM | 0.00011 s⁻¹ | 5e+07 M⁻¹ s⁻¹ | 0.002 nM | 0.00011 s⁻¹ | 5e+07 M⁻¹ s⁻¹ | no binding | 0.002 nM | 0.00015 s⁻¹ | 9.6e+07 M⁻¹ s⁻¹ | 0.11 nM | 0.00022 s⁻¹ | 2e+06 M⁻¹ s⁻¹ | 0.074 nM | 0.00014 s⁻¹ | 1.9e+06 M⁻¹ s⁻¹ | 0.013 nM | 0.00092 s⁻¹ | 7.3e+07 M⁻¹ s⁻¹ |  | GDF11 (ligand, UniProt O95390 299-407, looked up, also called BMP11) NLGLDCDEHSSESRCCRYPLTVDFEAFGWDWIIAPKRYKANYCSGQCEYMFMQKYPHTHLVQQANPRGSAGPCCTPTKMSPINMLYFNDKQQIIYGKIPGMVVDRCGCS | 
0.011 nM | 0.00026 s⁻¹ | 2.3e+07 M⁻¹ s⁻¹ | 0.004 nM | 0.0002 s⁻¹ | 5.9e+07 M⁻¹ s⁻¹ | no binding | 0.025 nM | 0.00015 s⁻¹ | 5.9e+06 M⁻¹ s⁻¹ | 0.005 nM | 0.00028 s⁻¹ | 5.4e+07 M⁻¹ s⁻¹ | 0.018 nM | 0.00038 s⁻¹ | 2.1e+07 M⁻¹ s⁻¹ | 0.085 nM | 0.0025 s⁻¹ | 2.9e+07 M⁻¹ s⁻¹ | 0.13 nM | BMP10 (ligand, UniProt O95393 317-424, looked up) NAKGNYCKRTPLYIDFKEIGWDSWIIAPPGYEAYECRGVCNYPLAEHLTPTKHAIIQALVHLKNSQKASKACCVPTKLEPISILYLDKGVVTYKFKYEGMAVSECGCR | Kd (BMPRII-Fc homodimer [9]): 0.1 nM; koff (BMPRII-Fc homodimer [9]): 0.0025 s⁻¹; kon (BMPRII-Fc homodimer [9]): 2.6e+07 M⁻¹ s⁻¹; koff (BMPRII-Fc homodimer [6]): 0.005 s⁻¹; kon (BMPRII-Fc homodimer [6]): 3.8e+07 M⁻¹ s⁻¹; Kd (BMPRII-Fc homodimer [7]): 0.1 nM; koff (BMPRII-Fc homodimer [7]): 0.0025 s⁻¹; kon (BMPRII-Fc homodimer [7]): 2.6e+07 M⁻¹ s⁻¹; Kd (BMPRII-Fc homodimer [8]): 0.1 nM; koff (BMPRII-Fc homodimer [8]): 0.0025 s⁻¹; kon (BMPRII-Fc homodimer [8]): 2.6e+07 M⁻¹ s⁻¹
